Test results as given in patent US7790673 (dated 2010).

Key:
Aβ1-40 synthetic peptide = Aβ1-40 synthetic peptide (UniProt P05067 672-711); assay: ELISA
Aβ1-42 synthetic peptide = Aβ1-42 synthetic peptide (UniProt P05067 672-713); assay: ELISA
Sequence of Aβ1-42 synthetic peptide (P05067 672-713): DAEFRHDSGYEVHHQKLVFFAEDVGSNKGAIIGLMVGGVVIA

Sequence of Aβ1-40 synthetic peptide (P05067 672-711): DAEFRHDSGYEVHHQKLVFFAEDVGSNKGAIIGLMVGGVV

B1: wild type human cystatin C (other)
chain: SSPGKPPRLVGGPMDASVEEEGVRRALDFAVGEYNKASNDMYHSRALQVVRARKQIVAGVNYFLDVELGRTTCTKTQPNLDNCPFHDQPHLKRKAFCSFQIYAVPWQGTMTLSKSTCQDA
Kd (Aβ1-40 synthetic peptide): 16.4 nM | Kd (Aβ1-42 synthetic peptide): 10.6 nM

B2: variant human cystatin C (L68Q, HCHWA-I variant) (other)
chain: SSPGKPPRLVGGPMDASVEEEGVRRALDFAVGEYNKASNDMYHSRALQVVRARKQIVAGVNYFLDVEQGRTTCTKTQPNLDNCPFHDQPHLKRKAFCSFQIYAVPWQGTMTLSKSTCQDA
Kd (Aβ1-40 synthetic peptide): 9.2 nM | Kd (Aβ1-42 synthetic peptide): 5.9 nM

B3: urinary cystatin C (Calbiochem Biosciences) (other)
chain: SSPGKPPRLVGGPMDASVEEEGVRRALDFAVGEYNKASNDMYHSRALQVVRARKQIVAGVNYFLDVELGRTTCTKTQPNLDNCPFHDQPHLKRKAFCSFQIYAVPWQGTMTLSKSTCQDA
Kd (Aβ1-40 synthetic peptide): 9 nM | Kd (Aβ1-42 synthetic peptide): 6.6 nM
